{"source": "paper doi:10.1101/2024.09.28.615595", "target": "CsrA (Escherichia coli (K-12 MG1655?)) (UniProt P69913)", "sequence (P69913 whole entry)": "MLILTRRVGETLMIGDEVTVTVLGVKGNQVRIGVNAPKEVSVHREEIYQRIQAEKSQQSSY", "experiment": "EMSA", "settings": "binding buffer, pH and temperature not given", "data": [{"sequence": "GGGAGAACGGUUAACUUAACGGAUGUUUCGCGGUGUGGGUGAGCAUGAUGGUUCACCGGCAUCUCAAUUCUCAUUUAAACGUACCUGCAGCGAAUGAAUACUGAAGCCACGCACGACCAAAAUGAAGCACUUACUACCGGCGCUCGCCUGCGUAAUGCUCGCGAACAACUAGGACUUAGUCAGCAGGCCGUUG [rodZ leader]", "values": [{"measurement": "binding", "value": "binds"}]}, {"sequence": "GGGAGAUUUGUGUUUAUCCCGAUUUUCGCGAUCGCAGCCGGAGUGGCGCAAUCCCUGCAAUACUUAAAUCGGUAUCAUGUGAUACGCGAGCCUCCGGAGCAUAUUUUGAACAGGUUACCUUCGAGCGCAUCGGCUUUAGCGUGCAGCGCCCACGCCCUGAAUCUCAUUGAGAAGCGAACGCUGGAUCAUGAGGAGAUGAAAGCAC [patA leader]", "values": [{"measurement": "binding", "value": "binds"}]}, {"sequence": "GGGAGGUAAUUUUGGUUUUCCCGGCCAAAAAUGGACAAUAACCACCAGGAAAAGGAGACGGAAUGCAUCACGCCACCCCGCUUAUCACCACCAUUGUUGGCGGCCUUGUGCUCGCCUUUAUCCUCGGCAUGCUGGCCAAUAAACUACGUAUUUCUCCUCUGG [ybaL leader]", "values": [{"measurement": "binding", "value": "binds"}]}, {"sequence": "GGGAGGUUUGCUUUUAGGUUAGCGACCGAAAAUAUAAAUGAUAAUCAUUAUUAAAGCCUUUAUCAUUUUGUGGAGGAUGAUAUGGAUACGUCACUGGCUGAGGAAGUACAGCAGACCAUGGCAACACUUGCGCCCAAUCGCUUUUUCUUUAUGUCGCCGUACCGCAGUUUUACGACGUCAG [entC leader]", "values": [{"measurement": "binding", "value": "binds"}]}, {"sequence": "GGGAUAAUGCGCUUUCUUUAGCCGUUAAUAUCCACCGGCAUGGCUGCGCGCCGUGCCGGUUCCUUCUUGCUUGGCGUCACUCUUUGAAGACGCAUUCUGCAGUUUACGAUGACUACUAUUGUUGACAGCAAUCUGCCGGUUGCCCGCCCGUCAUGGGAUCAUUCUCGUCUGGAAUCACGCAUUGUGCAUCUCGGUUGCGGGGCGUUUCGCAUGC [uxuB 5' UTR mutant (UPSTR mut)]", "values": [{"measurement": "K half", "value": 144, "unit": "nM"}]}]}
